Data from article PMC10580122, “Human IL-35 Inhibits the Bioactivity of IL-12 and Its Interaction with IL-12Rβ2” (ImmunoHorizons, 2023).

Target: T1, recombinant human IL-12Rβ1 (human, UniProt P42701 24-545)
T1 construct: human IL-12 receptor subunit beta-1, recombinant; also called rIL-12Rβ1; source: bought: Sino Biological (11674-H08H)
Assay: ELISA; solid-phase binding assay; wells coated with rIL-12Rβ1, rIL-12Rβ2 or no IL-12R chain; IL-12 or IL-12p40 monomer alone or with IL-35, each cytokine fixed at 5 μg/ml; overnight at 4°C; detected with anti-IL-12 or anti-IL-12p40 and HRP
Details: both partners purified

B1: Human IL-12 (complex)
chain 1: RNLPVATPDPGMFPCLHHSQNLLRAVSNMLQKARQTLEFYPCTSEEIDHEDITKDKTSTVEACLPLELTKNESCLNSRETSFITNGSCLASRKTSFMMALCLSSIYEDLKMYQVEFKTMNAKLLMDPKRQIFLDQNMLAVIDELMQALNFNSETVPQKSSLEEPDFYKTKIKLCILLHAFRIRAVTIDRVMSYLNAS
chain 2: IWELKKDVYVVELDWYPDAPGEMVVLTCDTPEEDGITWTLDQSSEVLGSGKTLTIQVKEFGDAGQYTCHKGGEVLSHSLLLLHKKEDGIWSTDILKDQKEPKNKTFLRCEAKNYSGRFTCWWLTTISTDLTFSVKSSRGSSDPQGVTCGAATLSAERVRGDNKEYEYSVECQEDSACPAAEESLPIEVMVDAVHKLKYENYTSSFFIRDIIKPDPPKNLQLKPLKNSRQVEVSWEYPDTWSTPHSYFSLTFCVQVQGKSKREKKDRVFTDKTSATVICRKNASISVRAQDRYYSSSWSEWASVPCS
notes: p35 subunit of human IL-12 (IL-12p35); linked to p40 via a disulfide bond; p40 subunit of human IL-12 (IL-12p40); linked to p35 via a disulfide bond; Bought heterodimer of p35 and p40; also called exogenous human IL-12; source: bought: PeproTech (200-12H)
  binding result: binds
